Measured values from patent publication US10370443B2, “Method of treating autoimmune disease by administering antibodies to interleukin-6” (Fountain Biopharma Inc., priority 2012, dated 2019).
Where a chain is given by its changes, count along the chain named. Entries after “also recorded” stand apart in the source; their conditions may differ.

Columns and labels:
BxPC-3 tumor = experiment: Xenograft human pancreatic tumor model; assay type: in vivo, mice; details: BxPC-3 tumor sections, FIGS. 6E and 6F
Description: (iv) Xenograft Human Pancreatic Tumor Model Human pancreatic tumor cells BxPC-3 and MiaPaCa cells were re-suspended in PBS and injected subcutaneously (s.c.) (5×10^6 cells, total volume 0.15 mL) into the right flank of mice. […] Mice body weights and the tumor sizes were measured twice a week. Tumor sizes were measured using a caliper, and the tumor volume was calculated by […]. After the experiment, all mice were sacrificed, mice blood samples were collected and the tumor masses were removed and weighted. The differences in mean tumor volume and tumor weight were evaluated by Student's t-test. […] Results (i) FB704 Inhibits In Vivo Angiogenesis in a Matrigel Assay
FB704 enhanced the anti-tumor activity of Oxaliplatin or Gemcitabine in a human pancreatic cancer model.

[1] = test system: IL6-induced phosphorylated STAT3 in U266 cells; experiment: Cell signaling transduction assay (P-STAT3 western blot); assay type: cell-based, human; details: for STAT3 phosphorylation inhibition percentage of control: rhIL6; for suppression of phosphorylated-STAT3 signaling: western blot, FIG. 1A/1B
Description: U266 cells (1×10^6/ml) were washed twice with serum-free RPMI 1640 and cultured for 2 h in the absence of fetal bovine serum and growth factors. Cells were stimulated with rhIL6 (5 ng/ml) for 30 min at 37° C. and then treated with or without anti-IL6 antibodies. Cells were washed with ice-cold PBS, and then lysed in RIPA buffer (Thermo) supplemented with protease and phosphatase inhibitor (Roche). Western blot analysis was performed using anti-pSTAT3, and anti-STAT3 (Cell Signaling Technology) antibodies. After incubating with HRP-labeled goat anti-rabbit (Thermo) or HRP-labeled goat anti-mouse antibody (Thermo), the membranes were developed by enhanced chemiluminescence (GE Healthcare).
Human multiple myeloma U266 cells were used to examine the effect of anti-IL6 antibodies on IL6-induced signaling cascade. U266 cells were cultured in the presence or absent of antibodies, together with rhIL6. After 30 minutes, whole cell lysates were collected and western blot analysis was performed to examine phosphorylated STAT3 protein (P-STAT3), which is a major transcription factor involved in the IL6 signaling pathway. […] (FIGS. 1A and 1B).

[2] = test system: human prostate cancer PC-3 cell; experiment: Prostate PC3 tumor metastasis and cachexia, intrasplenic implantation model; details: for total body weights (cachexia): day 31 after PC-3 implantation, 20 mg/kg i.v. twice a week, P<0.01; for symptom-free survival of PC3 tumor-bearing mice: repetitive injections, Kaplan-Meier, FIG. 5B
Description: The body weights of those mice were measured twice a week.
All mice were then euthanized by CO2 asphyxiation and body weights were determined. Primary tumors in the spleen and liver were excised, photographed, and weighed. Organ index was expressed as milligram organ per gram mouse. Mean+SD were calculated using Student's t-test. The survival assay was used Kaplan-Meier analysis. Paraffin-embedded or frozen section of tumor masses were prepared and stained by anti-CD31 and Ki-67 plus Hematoxylin staining for analysis.
To verify the efficacy of FB704 on cancer induced cachexia and metastasis, mice were implanted with human prostate cancer PC-3 cell (1.0×10^6 per mouse) by intrasplenic injection. On day 1, the mice were randomized into 4 groups (n=12-15). High (20 mg/kg) and low (5 mg/kg) dose of FB704, positive control Actemra (20 mg/kg) and PBS were administered via i.v. (intravenous) injection twice a week.

recombinant human IL6 = target: T1, recombinant human IL6 (Homo sapiens, UniProt P05231); experiment: BIAcore analysis of IgG binding affinity; details: for Ka: association rate constant, captured IgG, BIAcore T200; for Kd: dissociation rate constant
T1 construct: purchased R&D Systems
Description: IgG binding affinity was measured by using human antibody capture kit (GE healthcare) in BIAcore T200 system (GE healthcare). The mouse anti-human IgG was immobilized on a CMS sensor chip via amine coupling. Approximately 700 RU of purified anti-IL6 IgG in HBS-EP+ buffer were captured onto the immobilized surface. The recombinant human IL6 (R&D Systems) at concentrations ranging from 25.6 nM to 0.4 nM in HBS-EP+ buffer was injected for 2 minutes using a flow rate of 30 μl/min. Dissociation of bound antigen in HBS^−EP^+ buffer flow was followed for 7 minutes. The surfaces IgG were regenerated after each cycle using regeneration solution (3M MgCl2). The dissociation constant (KD) was calculated as kd/ka.

[3] = test system: human IL6 and other cytokines (IL6 family and non-IL6 family); experiment: Specificity analysis ELISA on coated cytokines; assay type: binding; details: FIGS. 3A and 3B
Description: Plates were coated with recombinant human IL3, IL4, IL5, IL6, IL11, IL17A, CNTF, OSM, IGF-1 (R&D Systems), IL2, FGF (Prospec), VEGF, TNF-α, EGF (Peprotech) at 2 μg/ml in 0.1M NaHCO3 buffer at 4° C. overnight. After being washed by PBS, the wells were blocked with 1% (w/v) BSA in PBS at RT for 1 h. Purified anti-IL6 antibodies in four-fold serial dilutions at a starting concentration of 2 μg/ml were placed into the wells and incubated at RT for 1 h. The plate was washed in PBS containing 0.1% (w/v) Tween 20 and then probed with HRP-labeled goat anti-human IgG (KPL) diluted 1:10,000 in 1% BSA-PBS for 40 min at RT. The plate was again washed and a TMB substrate solution was added to develop color. Stop solution (1M H2SO4) was then added and the absorption at 450 nm quantitated using VERSA max (Molecular Devices).
An ELISA assay as described herein was performed to confirm the binding specificity of high-affinity anti-IL6 antibodies described herein. Briefly, plates were coated with different cytokines as indicated in FIG. 3A (IL6 family cytokines) and FIG. 3B (non-IL6 family cytokines) and the binding activities of the FB704 antibody clone (i.e. Ag1-4-6) to those cytokines were examined.

[4] = test system: hIL6-induced angiogenesis; experiment: Matrigel angiogenesis assay; assay type: in vivo, mice; details: listed as FB704
Description: Liquid matrigel (BD Biosciences) was maintained at 4° C. hIL6 recombinant protein (R&D Systems) was added to Matrigel to a final concentration of 100 ng/0.5 ml. […] Then, the mice were treated with anti-IL6 IgG antibodies or a control IgG antibody through intravenous injection. On day 6, the mice were euthanized by CO2 asphyxiation. Matrigel plugs were removed, weighed and photographed. To measure hemoglobin levels, the Matrigel plug was lysed with a lysis buffer (1% SDS, 0.5% Triton in PBS) overnight at 4° C. The hemoglobin contents of the plugs were quantitated using Drabkin's reagent (Sigma). The concentrations of hemoglobin in the plugs were determined using a standard curve of bovine hemoglobin (Sigma). Hemoglobin contents were indicated as micrograms hemoglobin per gram Matrigel. Mean+SD were calculated using the Student's unpaired t test; p<0.05 was considered as statistically significant.
The anti-angiogenic ability of FB704 was examined in an in vivo matrigel model as described herein. Six days after the treatment, the mice were scarified mice and hemoglobin concentrations were measured. […] (FIG. 4B).

[5] = test system: IL6 plus sIL6R induced MCP-1 and sICAM-1 in HUVECs; experiment: MCP-1 and sICAM-1 production in HUVEC cells (ELISA); assay type: cell-based, human; details: 24 h; for inhibition of IL6+sIL6R induced MCP-1 secretion: FIG. 2A; for inhibition of sICAM-1 production: FIG. 2B
Description: To examine the effectiveness of the anti-IL6 antibodies described herein in treating rheumatoid arthritis (RA), monocyte chemotactic protein-1 (MCP-1) and sICAM-1 secretion by Human Umbilical Vein Endothelial Cells (HUVECs) were measured after antibody treatment as follows. The HUVEC cells were plated in a 48-well plate at a density of 2×10^5 cells/ml. The cells were treated with a combination of recombinant human IL6, IL6 receptor-α (R&D systems) with or without anti-IL6 antibodies at various concentrations or the control IgG antibody at 37° C. for 24 h. Cell free culture supernatants were collected and analysis for MCP-1 and sICAM-1 by ELISA (RayBiotech)

[6] = test system: IL6-induced MCP-1 in PBMC cells; experiment: MCP-1 production in human PBMC; assay type: cell-based; details: PBMC of five healthy donors, IL6 100 ng/ml, 24 h, FIG. 7B
Description: Further, PBMCs were isolated from five healthy donors. The cells (5×10^5 cells/250 μl/well) were cultured with IL6 (100 ng/ml) for 24 h in a 96-well U-bottomed culture plates (Corning, Corning, N.Y.) containing RPMI1640 in the presence of anti-IL6 antibodies at different concentrations. The levels of MCP-1 in the supernatant were measured by MCP-1 ELISA kits (e Bioscience).

T1 sequence (P05231 30-212): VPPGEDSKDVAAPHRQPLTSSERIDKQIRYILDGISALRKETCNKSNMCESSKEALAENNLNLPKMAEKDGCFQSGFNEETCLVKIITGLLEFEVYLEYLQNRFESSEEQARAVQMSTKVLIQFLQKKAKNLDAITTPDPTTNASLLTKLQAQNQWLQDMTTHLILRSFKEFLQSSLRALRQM

Molecule: O=C1[O][Pt]2([NH][C@@H]3CCCC[C@H]3[NH]2)[O]C1=O [Oxaliplatin, reference compound]
- Ki-67 positive cell rate (BxPC-3 tumor): 14%

Molecule: Actemra: anti-IL6 receptor humanized antibody, FDA-approved for rheumatoid arthritis, used as a control [reference compound]
- STAT3 phosphorylation inhibition percentage of control ([1]; Ab concentration 0.05 μg/ml): 0%
- STAT3 phosphorylation inhibition percentage of control ([1]; Ab concentration 0.5 μg/ml): 17%
- total body weights (cachexia) [2]: remained stable
- symptom-free survival of PC3 tumor-bearing mice [2]: significantly prolonged symptom-free survival

B1: 1-4-62: parent fully-human anti-IL6 antibody clone; HC CDR3 SEQ ID NO: 6, LC CDR3 SEQ ID NO: 13 (antibody, V domains shown)
VH: EVQLVESGPALVKPTQTLTLTCTFSGFSLSTGGMSVSWIRQPPGKALEWLARIDWDDDKFYTPSLKTRLTISRDTSKNQVVLIMTNMDPVDTATYYCARMHIDDSNGYYSDAFHIWGQGTMVTVSS
VL: EIVLTQSPATLSVSPGERVTLSCRDSQSVSSTSLAWYQQKSGQAPRLLIYDTSNRATGIPARFSGGGSGTDFTLTISSLEPEDFAVYYCLVRNNWPPRFTFGQGTKVEIK
- dissociation rate constants (kd) (recombinant human IL6): 0.00166 s⁻¹
- Ka (recombinant human IL6): 438000 M⁻¹ s⁻¹
- Kd (recombinant human IL6): 0.00166 s⁻¹

B2: Ag1-4-6: affinity-matured fully-human anti-IL6 antibody; HC CDR3 SEQ ID NO: 6, LC CDR3 SEQ ID NO: 15 (antibody, V domains shown)
VH: B1 VH
VL: B1 VL with L90S, V91F, R92V, N93S, N94R, W95P, P96Y
- Ka (recombinant human IL6): 1.61e+06 M⁻¹ s⁻¹
- Kd (recombinant human IL6): 0.00121 s⁻¹
- suppression of phosphorylated-STAT3 signaling [1]: at a level greater than Actemra; also recorded: suppressed the STAT3 signaling at a much greater level as compared to control antibody Actemra
- binding activity to coated cytokines (specificity) [3]: high binding activity to human IL6 protein but not to other cytokines
- inhibition of IL6-induced angiogenesis in matrigel plugs ([4]; 6 days after treatment, FIG. 4A): observable difference in color and vessel density; also recorded: inhibited angiogenesis
- hemoglobin concentrations in matrigel plugs ([4]; day 6, compared with hIL6, FIG. 4B): significantly reduced the hemoglobin concentrations; also recorded: significantly changed the hemoglobin concentrations
- Ki-67 positive cell rate (BxPC-3 tumor): 16%
- inhibition of IL6+sIL6R induced MCP-1 secretion [5]: in a dose dependent manner; also recorded: inhibited
- inhibition of sICAM-1 production [5]: in a dose dependent manner; also recorded: at a level greater than Actemra
- suppression of MCP-1 production [6]: inhibited MCP-1 production in a dose dependent manner
- total body weights (cachexia) [2]: remained stable
- tumor cell infiltration in liver ([2]; gross necropsy, FIG. 5C): moderate tumor cell infiltration
- vessel density / CD31 staining on tumor sections ([2]; immunohistochemistry, vs PBS, FIGS. 5D and 5E): significantly decreased
- symptom-free survival of PC3 tumor-bearing mice ([2]; listed as FB704): significantly prolonged symptom-free survival; also recorded: significantly better efficacy than Actemra; also recorded: significant better efficacy than Actemra

B3: HAg1T-3-10: affinity-matured fully-human anti-IL6 antibody; HC CDR3 SEQ ID NO: 16, LC CDR3 SEQ ID NO: 15 (antibody, V domains shown)
VH: B1 VH with Y109F
VL: B1 VL with L90S, V91F, R92V, N93S, N94R, W95P, P96Y
- dissociation rate constants (kd) (recombinant human IL6): 0.0006 s⁻¹
- Ka (recombinant human IL6): 2.24e+06 M⁻¹ s⁻¹
- Kd (recombinant human IL6): 0.0006 s⁻¹
- suppression of phosphorylated-STAT3 signaling [1]: at a level greater than Actemra
- suppression of phosphorylated-STAT3 signaling ([1]; listed as HAgT1-3-10): suppressed the STAT3 signaling at a much greater level as compared to control antibody Actemra
- inhibition of IL6+sIL6R induced MCP-1 secretion [5]: in a dose dependent manner
- inhibition of IL6+sIL6R induced MCP-1 secretion ([5]; listed as Hag1T-3-10): inhibited
- inhibition of sICAM-1 production [5]: in a dose dependent manner
- inhibition of sICAM-1 production ([5]; listed as Hag1T-3-10): at a level greater than Actemra
- suppression of MCP-1 production [6]: inhibited MCP-1 production in a dose dependent manner
